Like-named read-outs stand apart in the source and are kept apart here.
Tests used:
[1] = molecular target: T1, human Tissue Factor on human TF-positive cells (human, UniProt P13726 33-295); assay: competition flow cytometry on MDA-MB-231 cells: unlabeled antibody titration first, then 20 nM 39A-Alexa488 as the competitor
T1 construct: also called hTF; CD142

[2] = molecular target: T2, full-length mouse TF with a C-terminal FLAG tag on Flp-In-CHO cells (mouse, UniProt P20352 29-294); assay: flow cytometry, antibody titration on CHO cells expressing mouse TF
T2 construct: also called CHO-mTF; mouse TF-positive CHO cells

[3] = molecular target: T3, cynomolgus monkey TF ECD-His6 (cynomolgus monkey (Macaca fascicularis)); assay: SPR (Biacore), TF-His over coupled antibody
T3 construct: Expi293-derived; also called TF-His; cTF
T3 chain: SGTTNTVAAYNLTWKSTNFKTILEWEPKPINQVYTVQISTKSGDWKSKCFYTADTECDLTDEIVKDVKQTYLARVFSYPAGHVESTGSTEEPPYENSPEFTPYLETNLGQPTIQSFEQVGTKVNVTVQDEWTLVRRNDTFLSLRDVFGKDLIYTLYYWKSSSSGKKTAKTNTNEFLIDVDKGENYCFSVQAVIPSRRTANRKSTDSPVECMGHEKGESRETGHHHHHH
Procedure: (§1) Kinetic measurements for the anti-TF antibodies were conducted on an Octet QK384 (Pall ForteBio, Fremont, CA, USA) or a Biacore (GE Healthcare Bio-Sciences).
(§2) For the Biacore-based measurements, the antibody was covalently coupled to a CM5 or C1 chip using an amine-coupling kit (GE Healthcare Bio-Sciences). Association between the anti-TF antibodies and a five-point three-fold titration of TF-His starting at 25 to 500 nM was measured for 300 sec. Subsequently, dissociation between the anti-TF antibody and TF-His was measured for up to 1800 sec. Kinetic data was analyzed and fitted globally using a 1:1 binding model.

human TF ECD-His6 [4] = molecular target: T4, human TF ECD-His6 (human, UniProt P13726 33-251); assay: SPR (Biacore), TF-His over coupled antibody
T4 construct: Expi293-derived; Biacore used TF-His; also called TF-His; hTF
Procedure: as §1, §2

[5] = molecular target: T3, cynomolgus monkey TF ECD-His6; assay: BLI (ForteBio Octet)
Procedure: as §1
(§3) Briefly, ForteBio affinity measurements were performed by loading IgGs on-line onto AHC sensors. Sensors were equilibrated off-line in assay buffer for 30 min and then monitored on-line for 60 seconds for baseline establishment. Sensors with loaded IgGs were exposed to 100 nM antigen (human, cynomolgus, or mouse TF) for 3 min, afterwards they were transferred to assay buffer for 3 min for off-rate measurement. Alternatively, binding measurements were obtained by loading biotinylated TF monomer on SA sensors followed by exposure to 100 nM antibody Fab in solution. Kinetic data was analyzed and fitted using a 1:1 Langmuir binding model and the KD was calculated by dividing the koff by the kₒₙ.

human TF ECD-His6 [6] = molecular target: T4, human TF ECD-His6; assay: BLI (ForteBio Octet)
Procedure: as §1, §3

Relipidated TF [7] = molecular target: T5, Relipidated TF (UniProt P13726 33-295, limits assumed); assay: cell-based or functional assay
[8] = molecular target: T1, human Tissue Factor on human …; assay: competition flow cytometry on MDA-MB-231 cells: unlabeled antibody titration first, then 20 nM 39A-Alexa488 as the competitor; remark: listed apart in the source
[9] = molecular target: T1, human Tissue Factor on human …; assay: competition flow cytometry on MDA-MB-231 cells: antibody titration first, then 20 nM FVII-Fc-Alexa488 as the blocked ligand
[10] = molecular target: T2, full-length mouse TF with a C-terminal …; assay: flow cytometry on CHO cells expressing mouse TF, MFI at 250 nM antibody
Procedure: (§4) After 2 washes, dead cells were labeled with TO-PRO-3 Iodide (ThermoFisher Scientific) and samples were analyzed on a CytoFLEX flow cytometer (Beckman Coulter, Brea, CA, USA) or Novocyte flow cytometer (ACEA Biosciences, San Diego, CA, USA). The median fluorescence intensities (MFIs) at each dilution were plotted and cell EC₅₀'s were derived using a 4-parameter binding model in Prism (GraphPad, La Jolla, CA, USA).

[11] = molecular target: T1, human Tissue Factor on human …; assay: flow cytometry, antibody titration on A431 cells (human TF), 4-parameter fit of MFI
Procedure: as §4

Relipidated TF [12] = molecular target: T5, Relipidated TF; assay: cell-based or functional assay; remark: listed apart in the source
[13] = molecular target: T6, rTF (rat TF) construct on HEK293 cells (rat, UniProt P42533 29-252); assay: live cell staining, HEK293 cells
T6 construct: not shown: transmembrane/cytoplasmic anchor of the cell-surface construct

[14] = molecular target: T1, human Tissue Factor on human …; assay: flow cytometry, antibody titration on MDA-MB-231 cells (human TF), 4-parameter fit of MFI
Procedure: as §4

[15] = molecular target: T1, human Tissue Factor on human …; assay: flow cytometry, titration of unconjugated antibody on HCT-116 cells (human TF), 4-parameter fit of MFI
[16] = molecular target: T1, human Tissue Factor on human …; assay: flow cytometry, antibody titration on HCT-116 cells (endogenous human TF), 4-parameter fit of MFI
Procedure: as §4

h1-77_r = molecular target: T7, h1-77_r (human/rat chimera); assay: live cell staining, flow cytometry, transfected HEK293
T7 construct: Human TF ECD with residues 1-77 replaced by rat segment
Procedure: (§5) To establish binding of the anti-human TF antibodies to the various TF constructs, HEK293 cells were transfected with a DNA plasmid that co-expresses the TF construct and a green fluorescent protein marker. […] Upon acquisition of 80,000 live events on a flow cytometer, live cells marked with the fluorescent marker were analyzed for the degree of staining by the anti-TF antibody.

h78-107_r.v2 = h78-107_r.v2 (human/rat chimera); assay: as above
Procedure: as §5

rTF (rat TF) [17] = molecular target: T8, rTF (rat TF) (rat, UniProt P42533 29-252); assay: as above
Procedure: as §5

h1-107_r = molecular target: T9, h1-107_r (human/rat chimera); assay: as above
T9 chain: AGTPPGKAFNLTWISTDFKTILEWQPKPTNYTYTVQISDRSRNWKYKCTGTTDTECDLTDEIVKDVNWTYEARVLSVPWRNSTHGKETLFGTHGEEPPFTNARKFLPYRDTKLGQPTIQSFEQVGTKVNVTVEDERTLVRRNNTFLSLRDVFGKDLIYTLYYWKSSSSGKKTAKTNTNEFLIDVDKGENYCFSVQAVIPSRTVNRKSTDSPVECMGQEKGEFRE
Procedure: as §5

r141-194_h = r141-194_h (rat/human chimera, UniProt P42533 29-252); assay: as above
Procedure: as §5

hTF_N171H_T197K = molecular target: T10, hTF_N171H_T197K (human, UniProt P13726 33-251); assay: as above
T10 chain: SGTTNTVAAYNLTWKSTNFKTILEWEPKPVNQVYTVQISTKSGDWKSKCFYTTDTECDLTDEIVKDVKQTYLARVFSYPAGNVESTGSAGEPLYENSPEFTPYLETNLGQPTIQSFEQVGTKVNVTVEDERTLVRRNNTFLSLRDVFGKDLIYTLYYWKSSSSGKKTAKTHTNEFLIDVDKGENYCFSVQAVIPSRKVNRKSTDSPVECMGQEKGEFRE
Procedure: as §5

rTF (rat TF) [18] = molecular target: T8, rTF (rat TF); assay: as above; remark: listed apart in the source
Procedure: as §5

[19] = molecular target: T11, hTF (human Tissue Factor construct) (human, UniProt P13726 33-251); assay: as above
T11 construct: also called human TF
Procedure: as §5

pig TF-His = molecular target: T12, pig TF-His (Pig (Sus scrofa)); assay: Biacore SPR, antibody captured by anti-human IgG on CM5, pig TF-His titrated from 100 nM, 1:1 fit
T12 construct: also called pig TF ECD-His; pTF
T12 chain: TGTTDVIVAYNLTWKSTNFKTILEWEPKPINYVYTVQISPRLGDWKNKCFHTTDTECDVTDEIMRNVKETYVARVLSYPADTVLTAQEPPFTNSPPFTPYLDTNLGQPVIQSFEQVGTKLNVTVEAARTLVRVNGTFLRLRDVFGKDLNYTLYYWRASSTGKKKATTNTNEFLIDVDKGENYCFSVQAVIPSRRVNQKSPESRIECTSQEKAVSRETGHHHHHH
Procedure: The ability of certain antibodies was tested for binding to pig TF. For pig TF Biacore-based measurements, a given anti-TF antibody was captured by an anti-human IgG antibody covalently coupled to a CM5 chip (GE Healthcare Bio-Sciences). Association between the anti-TF antibodies and a five-point three-fold titration of pig TF-His starting at 100 nM was measured for 180 to 240 sec. Subsequently, dissociation between the anti-TF antibody and TF-His was measured for 1800 sec. Kinetic data was analyzed and fitted globally using a 1:1 binding model.

T6 sequence (P42533 29-252 limits assumed): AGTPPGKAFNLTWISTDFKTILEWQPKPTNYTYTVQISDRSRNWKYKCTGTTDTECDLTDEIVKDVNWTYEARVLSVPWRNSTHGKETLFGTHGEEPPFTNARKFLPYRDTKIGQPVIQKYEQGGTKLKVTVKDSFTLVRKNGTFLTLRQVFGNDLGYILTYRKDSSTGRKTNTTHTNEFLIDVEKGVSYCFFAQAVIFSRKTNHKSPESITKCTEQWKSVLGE

B1: 39A (antibody, human IgG1, V domains shown)
VH: QVQLVQSGAEVKKPGSSVKVSCKASGGTFSSNAIGWVRQAPGQGLEWMGSIIPIIGFANYAQKFQGRVTITADESTSTAYMELSSLRSEDTAVYYCARDSGYYYGASSFGMDVWGQGTTVTVSS
VL: EIVMTQSPATLSVSPGERATLSCRASQSVSSNLAWYQQKPGQAPRLLIYGASTRATGIPARFSGSGSGTEFTLTISSLQSEDFAVYYCEQYNNLPLTFGGGTKVEIK
notes: Human IgG1; also called antibody designated 39A
IC50 [1]: 500 pM | binding result [2]: no binding (tested: 250 nM) | Kd [3]: 80 pM | Kd (human TF ECD-His6 [4]): 90 pM | Kd [5]: 570 pM | Kd (human TF ECD-His6 [6]): 830 pM | % ETP at 10 nM Ab (TGA with 10 min antibody pre-incubation) (Relipidated TF [7]): 28% | % ETP at 50 nM Ab (TGA with 10 min antibody pre-incubation) (Relipidated TF [7]): 20% | % Peak IIa at 10 nM Ab (TGA with 10 min antibody pre-incubation) (Relipidated TF [7]): 9% | % Peak IIa at 50 nM Ab (TGA with 10 min antibody pre-incubation) (Relipidated TF [7]): 7% | % Peak IIa at 100 nM Ab (TGA with 10 min antibody pre-incubation) (Relipidated TF [7]): 7% | ETP at 10 nM Ab (TGA with 10 min antibody pre-incubation) (Relipidated TF [7]): 482 nM·min | ETP at 50 nM Ab (TGA with 10 min antibody pre-incubation) (Relipidated TF [7]): 346 nM·min | Lag Time at 10 nM Ab (TGA with 10 min antibody pre-incubation) (Relipidated TF [7]): 20.8 min | Lag Time at 50 nM Ab (TGA with 10 min antibody pre-incubation) (Relipidated TF [7]): 28.4 min | Lag Time at 100 nM Ab (TGA with 10 min antibody pre-incubation) (Relipidated TF [7]): 28 min | Peak IIa at 10 nM Ab (TGA with 10 min antibody pre-incubation) (Relipidated TF [7]): 25 nM | Peak IIa at 50 nM Ab (TGA with 10 min antibody pre-incubation) (Relipidated TF [7]): 17 nM | Peak IIa at 100 nM Ab (TGA with 10 min antibody pre-incubation) (Relipidated TF [7]): 17 nM | ttPeak at 10 nM Ab (TGA with 10 min antibody pre-incubation) (Relipidated TF [7]): 30.7 min | ttPeak at 50 nM Ab (TGA with 10 min antibody pre-incubation) (Relipidated TF [7]): 38.9 min | ttPeak at 100 nM Ab (TGA with 10 min antibody pre-incubation) (Relipidated TF [7]): 40.2 min | IC50 [8]: 490 pM | IC50 (read off the curve) [9]: ~800 pM | MFI at 250 nM [10]: 3700 | EC50 [11]: 340 pM | % ETP at 10 nM Ab (TGA without antibody pre-incubation) (Relipidated TF [12]): 55% | % Peak IIa at 10 nM Ab (TGA without antibody pre-incubation) (Relipidated TF [12]): 20% | % Peak IIa at 50 nM Ab (TGA without antibody pre-incubation) (Relipidated TF [12]): 7% | % Peak IIa at 100 nM Ab (TGA without antibody pre-incubation) (Relipidated TF [12]): 6% | ETP at 10 nM Ab (TGA without antibody pre-incubation) (Relipidated TF [12]): 1330 nM·min | Lag Time at 10 nM Ab (TGA without antibody pre-incubation) (Relipidated TF [12]): 12.1 min | Lag Time at 50 nM Ab (TGA without antibody pre-incubation) (Relipidated TF [12]): 30.5 min | Lag Time at 100 nM Ab (TGA without antibody pre-incubation) (Relipidated TF [12]): 28.9 min | Peak IIa at 10 nM Ab (TGA without antibody pre-incubation) (Relipidated TF [12]): 82 nM | Peak IIa at 50 nM Ab (TGA without antibody pre-incubation) (Relipidated TF [12]): 30 nM | Peak IIa at 100 nM Ab (TGA without antibody pre-incubation) (Relipidated TF [12]): 26 nM | ttPeak at 10 nM Ab (TGA without antibody pre-incubation) (Relipidated TF [12]): 19.6 min | ttPeak at 50 nM Ab (TGA without antibody pre-incubation) (Relipidated TF [12]): 40 min | ttPeak at 100 nM Ab (TGA without antibody pre-incubation) (Relipidated TF [12]): 40.1 min | binding result [13]: no binding | EC50 [14]: 60 pM | EC50 [15]: 90 pM | EC50 [16]: 39 pM

B2: 1F (antibody, V domains shown)
VH: EVQLLESGGGLVQPGGSLRLSCAASGFTFSDYAMGWVRQAPGKGLEWVSTISGSGGLTYYADSVKGRFTISRDNSKNTLYLQMNSLRAEDTAVYYCAKAPYGYYMDVWGKGTTVTVSS
VL: not shown
notes: Human IgG (detected with anti-human IgG-Fc)
percent antibody binding to TF construct relative to hTF (h1-77_r): 0% | percent antibody binding to TF construct relative to hTF (h78-107_r.v2): 0% | percent antibody binding to TF construct relative to hTF (rTF (rat TF) [17]): 0% | percent antibody binding to TF construct relative to hTF (h1-107_r): 0% | percent antibody binding to TF construct relative to hTF (r141-194_h): 0% | percent antibody binding to TF construct relative to hTF (hTF_N171H_T197K): 83% | percent antibody binding to TF construct relative to hTF (rTF (rat TF) [18]): 0% | percent antibody binding to TF construct relative to hTF [19]: 100%

B3: 43D8 (antibody, V domains shown)
VH: QVQLQQWGAGLLKPSETLSLTCAVYGGSLSGYYWSWIRQPPGKGLEWIGEIGASGSTRYNPSLKSRVTISVDTSKNQFSLKLSSVTAADTAVYYCARDTPYYYEGGYYYYMDVWGKGTTVTVSS
VL: EIVLTQSPGTLSLSPGERATLSCRASQSVSSSFLAWYQQKPGQAPRLLIYGAYSRATGIPDRFSGSGSGTDFTLTISRLEPEDFAVYYCQQAGVVPYTFGGGTKVEIK
notes: Human IgG (captured by anti-human IgG in the Biacore assay); also called antibody designated 43D8
Kd (pig TF-His): 12900 pM

Source: US20250361322A1 (ICONIC THERAPEUTICS, published 2025)
